Data reported in publication PMC4765788, “Role of a chalcone isomerase-like protein in flavonoid biosynthesis in Arabidopsis thaliana” (Journal of Experimental Botany, 2015).

Molecular target: the molecule itself
Assay: native gel or EMSA; purified recombinant protein run on a non-denaturing PAGE gel

B1: recombinant TT5 protein (chalcone isomerase), His-tagged (enzyme, Arabidopsis thaliana, UniProt P41088 1-246, looked up)
chain: MSSSNACASPSPFPAVTKLHVDSVTFVPSVKSPASSNPLFLGGAGVRGLDIQGKFVIFTVIGVYLEGNAVPSLSVKWKGKTTEELTESIPFFREIVTGAFEKFIKVTMKLPLTGQQYSEKVTENCVAIWKQLGLYTDCEAKAVEKFLEIFKEETFPPGSSILFALSPTGSLTVAFSKDDSIPETGIAVIENKLLAEAVLESIIGKNGVSPGTRLSVAERLSQLMMKNKDEKEVSDHSVEEKLAKEN
notes: TT5, chalcone isomerase, Arabidopsis thaliana, At3g55120; ORF cloned into pQE-30; pQE-30 usually adds an N-terminal His6 tag (surmised); also called CHI
  stoichiometry N: 4
